One molecule from publication PMC5809688 (Molecular and Cellular Biology, 2017) can be followed below.

In one test the target is T1, p38α(T185G) (UniProt P47811 1-360, T185G).
T1 construct: PCR product described as a full-length p38α harboring the desired mutation; His6 tag followed by a TEV cleavage site at the N-terminal end; also called T185G mutant; p38α(T185G) mutant kinase
Briefly: ITC; ITC200 microcalorimeter (Microcal); T = 298 K; heats corrected for dilution; which partner was titrated is not stated. Conditions: both partners purified.

The target of test [1] is T2, wild-type p38α mitogen-activated protein kinase (UniProt P47811 1-360).
T2 construct: His6 tag followed by a TEV cleavage site at the N-terminal end; also called wtp38α
T2 sequence (P47811 whole entry): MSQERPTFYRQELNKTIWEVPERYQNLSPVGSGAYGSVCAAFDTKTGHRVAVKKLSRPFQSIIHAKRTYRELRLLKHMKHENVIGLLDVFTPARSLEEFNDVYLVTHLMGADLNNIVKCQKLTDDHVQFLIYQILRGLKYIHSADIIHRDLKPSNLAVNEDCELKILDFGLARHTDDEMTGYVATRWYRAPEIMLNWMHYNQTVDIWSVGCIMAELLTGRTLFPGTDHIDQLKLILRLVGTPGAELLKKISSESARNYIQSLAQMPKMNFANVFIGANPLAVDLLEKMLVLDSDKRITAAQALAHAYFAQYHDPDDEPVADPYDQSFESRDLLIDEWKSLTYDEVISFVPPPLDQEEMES
The description is as above. To be noted: both partners purified.

T1 sequence (P47811 whole entry T185G): as the sequence (P47811 whole entry) above, with T185G counted along it

B1: TAB1(384–412) peptide (transforming growth factor β-activated protein kinase binding protein 1, residues 384 to 412) (peptide, UniProt Q15750 384-412, looked up)
peptide: GGRVYPVSVPYSSAQSTSKTSVTLSLVMP
The Kd is the concentration at which binding is half-saturated. Usually stoichiometry N stands for a count of units in the complex or per binding partner. In the case of B1, in the test with p38α(T185G), binding was characterised by a dissociation constant (Kd) of 1.1 µM, the dH is -9.6 kcal/mol and the “stoichiometry N” value was found to be 0.7. Also, in test [1], the Kd turned out to be 2.9 µM, the dH is -13.6 kcal/mol and the “stoichiometry N” value came out at 0.8.
